According to patent US20260026500A1, “AGROCHEMICAL COMPOSITIONS” (BIOTALYS NV, priority 2022, published 2026):

System: Botrytis cinerea
Assay: In vitro microtiter plate antifungal assay, confluence analysis (IncuCyte S3) of spore outgrowth
Format: cell-based
From the text: An “IC50 value”, “EC50”, “IC50”, “EC50” or “half maximal inhibitory concentration” as used herein interchangeably is a measure for the potency of a polypeptide or cell wall disrupting agent or compositions as described herein in inhibiting the growth of a fungal pathogen. In practice (also see example 1) the growth of a fungal pathogen is tracked by measuring the confluency of said fungal pathogen in for example a well of a 96-well plate or 384-well plate in the presence of a series of different concentrations of the tested polypeptide or cell wall disrupting agent or compositions as described herein. The confluency data at the time-point at which the non-treated or negative control reaches for example 90% saturation is then taken for each concentration of the polypeptide or cell wall disrupting agent or compositions as described herein. Said confluence values are then plotted against the log transformed concentration values yielding a sigmoidal curve. This sigmoid curve may serve to define an IC50 value. Where this IC50 is the concentration of the polypeptide or cell wall disrupting agent or compositions as described herein where the corresponding confluence value is 50% of the saturated value as estimated by the maximum of the sigmoidal function.
The antifungal activity of VHHs, in combination with CWDEs, was assessed in an in vitro assay against the plant pathogenic fungus Botrytis cinerea. The current in vitro assay is a standard microtiter plate-based antifungal assay against Botrytis cinerea based on confluence analysis using an IncuCyte S3 System tracking the outgrowth of fungal spores overtime until saturation is reached. VHHs and CWDEs were assessed in serial dilutions, alone and in combination. The CWDEs were mixed with one VHH at a fixed ratio and serially diluted in 10 mM sterile HEPES buffer pH 7. […] Confluence was calculated with IncuCyte software version 2021C (Essen BioScience Inc.). […]
The IC50 value for both the CWDE and VHH were determined separately (FIGS. 1A and 1B, top panel). […]

B1: VHH-1: VHH, SEQ ID NO 1; taken from WO2021198396 (protein)
VHH: DVQLVESGGGLVQAGGSLRLSCAASRSIFSINAMDWYRQAPGKQREWVAGITRGGTTKYADSVKGRFTISRDNAKKKVYLQMNSLKPEDTAVYYCNVLRGEQPWTRDYWGQGTQVTVSS
modifications: Synthetic VHH sequence.
With B1 the “IC50 value, determined separately” value (VHH or CWDE alone, confluence of Botrytis cinerea, 4-parameter log-logistic fit, CWDE protein concentration overestimated) was 105.2 µg/mL, the “% change, additive effect of component, buffer normalized to 100%” value (dose regime VHH-1 at 16.7 mg/L and CWDE at 25 mg/L, protease inhibitor 0.06 X) was 20.5% and the “Estimate (% confluence), additive effect of component, difference from buffer” value (dose regime VHH-1 at 16.7 mg/L and CWDE at 25 mg/L, protease inhibitor 0.06 X, buffer 55.3) was 11.3 % confluence.
